Earlier results on one substance are cited in article PMC4136965 (Journal of nuclear medicine : official publication, Society …, 2009).

Read-outs that look alike come from different tables or passages of the source. Non-standard residues stand in square brackets, D forms with d. No end group written: not given here.

For the data set, the system named is B16F10 xenografted melanoma. The settings on record: mouse, in vivo.

With “^18F-FB-Ac-Nle-Asp-His-D-Phe-Arg-Trp-Gly-Lys-NH2 ([dF]RWGK-NH2; not fully specified (N-terminus); also: 18F-FB label, position not given here) [^18F-FB-NAPamide]”, the Tumor uptake was 1.19 ± 0.11 %ID/g (1 h) and 0.25 ± 0.05 %ID/g (4 h).
